This is an account of results in FireProtDB (doi:10.1021/bi972394l).

The conditions of the data set: Homo sapiens; pH 7.8; Thermal; DSC; potassium phosphate 2 mM; transition: 2; reversible: Yes; whole UniProt chain shown.

Where “and” joins values, the source holds several entries; their conditions need not be identical. Identical values can stand only once.

B1: Superoxide dismutase [Mn], mitochondrial wild type, P04179 (protein)
chain: MLSRAVCGTSRQLAPVLGYLGSRQKHSLPDLPYDYGALEPHINAQIMQLHHSKHHAAYVNNLNVTEEKYQEALAKGDVTAQIALQPALKFNGGGHINHSIFWTNLSPNGGGEPKGELLEAIKRDFGSFDKFKEKLTAASVGVQGSGWGWLGFNKERGHLQIAACPNQDPLQGTTGLIPLLGIDVWEHAYYLQYKNVRPDYLKAIWNVINWENVTERYMACKK
In the case of B1, the “unfolding enthalpy (calorimetric)” value is 142 kcal/mol and 90.6 kcal/mol.
